This experiment has as its target α-dystroglycan isolated from skeletal muscle (UniProt Q28685). As to the kind of experiment: ELISA. For orientation: In an ELISA, binding on a coated surface is turned into a signal by an enzyme label.

This is an account of results in PMC3080791.

Sequence of UniProt Q28685 (Q28685 30-653): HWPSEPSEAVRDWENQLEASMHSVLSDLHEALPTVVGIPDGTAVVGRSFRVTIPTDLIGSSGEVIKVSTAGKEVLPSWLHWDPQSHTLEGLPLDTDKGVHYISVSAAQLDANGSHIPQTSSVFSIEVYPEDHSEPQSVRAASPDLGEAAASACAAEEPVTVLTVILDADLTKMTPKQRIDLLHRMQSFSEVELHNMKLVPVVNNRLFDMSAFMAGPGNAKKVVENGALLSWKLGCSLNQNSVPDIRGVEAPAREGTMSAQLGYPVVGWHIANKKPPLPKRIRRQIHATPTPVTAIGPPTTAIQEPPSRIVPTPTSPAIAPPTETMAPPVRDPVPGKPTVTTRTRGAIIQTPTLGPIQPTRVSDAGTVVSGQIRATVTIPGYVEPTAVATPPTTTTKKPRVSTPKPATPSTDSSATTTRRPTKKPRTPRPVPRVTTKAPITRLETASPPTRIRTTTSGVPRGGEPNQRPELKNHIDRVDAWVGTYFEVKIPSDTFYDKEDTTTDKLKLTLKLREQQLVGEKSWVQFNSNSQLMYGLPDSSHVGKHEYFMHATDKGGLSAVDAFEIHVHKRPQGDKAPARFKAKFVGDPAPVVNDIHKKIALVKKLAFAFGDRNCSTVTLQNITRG

“LCMV WE54 envelope glycoprotein displayed on FIV lentiviral vector particles (FIV-WE54) (complex)” registered an OD relative to wild-type LCMV WE54 of 0.33.
